The target of assay [1] is gp140 of clade C strain CAP239.2.00.G3J (HIV-1 (clade C, strain CAP239.2.00.G3J)). The assay can be described thus: cryo-EM 2D comparison of trimers; 2D comparison of gp140ΔV2TV1 with full length gp140 constructs; trimeric diameters measured.
The target of assay [2] is full-length soluble trimeric gp140 immunogen from the clade C TV1 strain (HIV-1 (clade C, strain TV1)). The assay is described as above.
The target is the same in assay [3]. Nature of the assay: cryo-EM structure; unliganded gp140 in vitreous ice, 0.1 mg/ml, Tris buffer 20 mM pH 7.9, 50 mM NaCl; single particle reconstruction, ~21 Å at 0.5 FSC.
Assay [4] deals with gp140 of clade C strain CAP45.2.00.G3 (HIV-1 (clade C, strain CAP45.2.00.G3)). The assay can be described thus: cryo-EM 2D comparison of trimers; 2D comparison of gp140ΔV2TV1 with full length gp140 constructs; trimeric diameters measured.
In assay [5] the target is gp140 of clade C strain Du156.1 (HIV-1 (clade C, strain Du156.1)). Described as above.
Assay [6] concerns the target gp140ΔV2TV1, clade C gp140 trimer with a 30-residue truncation in the V2 loop (HIV-1 (clade C, strain TV1)). Described as above.

Usually stoichiometry N stands for the number of molecules, sites or subunits per partner or assembly.

For the substance “gp140 of clade C strain CAP239.2.00.G3J (natural protein)”, in assay [1], the stoichiometry N came out at 3.

Consider “full-length soluble trimeric gp140 immunogen from the clade C TV1 strain (natural protein)”, for which the stoichiometry N in assay [2] and in assay [3] was 3 throughout.

As for “gp140 of clade C strain CAP45.2.00.G3 (natural protein)”, in assay [4], the stoichiometry N was determined as 3.

“gp140 of clade C strain Du156.1 (natural protein)” yielded a stoichiometry N in assay [5] of 3.

In assay [6], “gp140ΔV2TV1, clade C gp140 trimer with a 30-residue truncation in the V2 loop (natural protein)” yielded a stoichiometry N of 3.

For the origin of these results see publication PMC4231788.
